Data on four molecules can be found in patent publication US12460245B2, “Luciferase sequences utilizing infrared-emitting substrates to produce enhanced luminescence” (Promega Corporation, priority 2014, dated 2025).

The test system of experiment [1] is ATG 1240. Nature of the experiment: Mimicry of tissue attenuation using long pass filters, transfected HEK293T cells. In kind it is cell-based, click beetle. The following applies: HEK293T cells expressing ATG 1240. On the procedure: A transfection complex was prepared by diluting ATG 1240 DNA or Luc2 DNA (pF4Ag-Luc2) to 100 ng/μL, and then 2× serial dilutions prepared in 50 ng/μL pGEM carrier DNA. 40 μL of the diluted DNA was the mixed with 160 μL phenol red free OptiMEM and 16 μL of FuGENE® HD and incubated for 20 min. 5 μL of each transfection complex was added to wells of a 96-well black assay plates and then 100 μL of diluted HEK293T cells (200,000/mL in DMEM+10% FBS) was added. The cells were grown overnight at 37° C. with CO2.
To assay the cells, 4 mM D-luciferin, 2 mM PBI-4813 and 2 mM PBI-4739 substrate solutions were prepared in DMEM+10% FBS. 100 μL of the D-luciferin solution was added to cells expressing Luc2 and ATG 1240, and 100 μL of PBI-4813 or PBI-4739 solution was added to ATG 1240 expressing cells. Samples were incubated for 10 min at 37° C., and luminescence detected on GloMax® Discover (heated to 37° C.) with no filter, 610 nm Long Pass (LP) filter, 665 nm LP filter, 695 nm LP filter, 720 nm LP filter or 760 nm LP filter.

The nature of experiment [2]: Combinations of H-acceptor and library screen mutants, lysate luminescence. The format is biochemical. The following applies: for Luminescence normalized to CBR luciferase, D-LH2 (luciferin): substrate D-LH2 (luciferin); for Luminescence normalized to CBR luciferase, PBI-4739: substrate PBI-4739; for Luminescence normalized to CBR luciferase, PBI-4813: substrate PBI-4813. On the procedure: (§1) 2. Cell lysates were prepared from cells containing the variants listed in Table 3 by diluting 100 μL of induced culture with 100 μL of lysis buffer (0.3×PLB, 0.006U RQ DNAse1) using a Tecan liquid handling robot. 50 μL of each cell lysate was assayed with either PBI-4813 or PBI-4739 (20 μM in Bright-Glo™ assay buffer containing 1 mM ATP), and luminescence detected on an ImageQuant CCD imager. Luminescence of the variants was normalized to CBR luciferase (FIG. 8).
Combinations of the Hydrogen acceptor mutants identified in Example 6 were designed and prepared using the QuikChange Multi Site-Directed Mutagenesis Kit (Agilent). Variants were cloned and expressed as described in Example 2 except the template was pF4Ag-CBR. Variants were screened as described in Example 6. Luminescence of the variants using luciferin (“D-LH2”), PBI-4813, and PBI-4739 was normalized to CBR luciferase (Table 4 and FIG. 9).

Experiment [3] is described as follows: Luminescence of ATG 1230 and ATG 1240 cell lysates, GloMax Discover with red-sensitive PMT. In kind it is biochemical. Conditions: for Luminescence, PBI-4739 / Luminescence, PBI 4813: cell lysate; for Luminescence, PBI-4739: 20 μM PBI-4739; for Luminescence, PBI 4813: 20 μM PBI-4813, GloMax Discover red-sensitive PMT; for PBI-4813/PBI-4739: ratio of luminescence with the two substrates. On the procedure:
as §1
Variant clones identified as ATG 1230 (CBR+389F+444R+251S) and ATG 1240 (CBR+334S+351R) were further evaluated for their luminescence, spectral property, Km and live cell kinetics with either PBI-4813 or PBI-4739. These variants were cloned and expressed as described in Example 2 except the template was pF4Ag-CBR, i.e., no HALOTAG®.
A. Luminescence with PBI-4813 and PBI-4739. Cell lysates of these variant clones were prepared and assayed for luminescence as described in Example 6. Luminescence was detected on a GloMax® Discover equipped with a red-sensitive photomultiplier tube (PMT) and compared to CBR luciferase (Table 5 and FIG. 10).

The nature of experiment [4]: Substrate inhibition of luciferase activity at high substrate concentration. Conditions: PBI-4813 at concentrations greater than ten times the Km. In kind it is biochemical.
Experiment [5] in a line: Recombination of ATG 1240 library mutants, lysate luminescence. In kind it is biochemical. From the text:
2. […] Luminescence of the variants was normalized to CBR luciferase (FIG. 8). Combinations of the ATG 1240 library mutants identified in Example 9 were designed and prepared using DNA shuffling ([…] USA 91:10747-10751). Briefly, a library of mutant genes was created via DNA shuffling. The mutant genes were then cloned into the pF4Ag vector and screened as described in Example 6. Luminescence was detected on a GloMax® Discover Multimode Detection System and normalized to ATG-1240 luciferase (Table 8 and FIG. 15).

[6] abbreviates: listed as 251S + 389F + 444R (343 template).

Values joined by “and” are separate entries in the source; they are usually repeats but may differ in a detail not shown here. Equal entries are not always repeated.

With `O=C(O)[C@H]1CSC(c2nc3ccc(O)cc3s2)=N1` [D-luciferin, D-(−)-2-(6′-hydroxy-2′-benzoth-iazolyl)-Δ^2-thiazolin-4-carboxylic acid], the “luminescence of ATG 1240 when light is attenuated with long pass filters” value in experiment [1] (37° C.) is reported as “may be brighter than with PBI-4739”. In addition, the “luminescence of ATG 1240 at the greatest light attenuation” value in experiment [1] (long pass filters) was “comparable”.

B1: CBR: click beetle red luciferase polypeptide of SEQ ID NO: 1 (protein)
chain: MVKREKNVIYGPEPLHPLEDLTAGEMLFRALRKHSHLPQALVDVVGDESLSYKEFFEATVLLAQSLHNCGYKMNDVVSICAENNTRFFIPVIAAWYIGMIVAPVNESYIPDELCKVMGISKPQIVFTTKNILNKVLEVQSRTNFIKRIIILDTVENIHGCESLPNFISRYSDGNIANFKPLHFDPVEQVAAILCSSGTTGLPKGVMQTHQNICVRLIHALDPRYGTQLIPGVTVLVYLPFFHAFGFHITLGYFMVGLRVIMFRRFDQEAFLKAIQDYEVRSVINVPSVILFLSKSPLVDKYDLSSLRELCCGAAPLAKEVAEVAAKRLNLPGIRCGFGLTESTSAIIQTLGDEFKSGSLGRVTPLMAAKIADRETGKALGPNQVGELCIKGPMVSKGYVNNVEATKEAIDDDGWLHSGDFGYYDEDEHFYVVDRYKELIKYKGSQVAPAELEEILLKNPCIRDVAVVGIPDLEAGELPSAFVVKQPGTEITAKEVYDYLAERVSHTKYLRGGVRFVDSIPRNVTGKITRKELLKQLLVKAGGV
In the case of B1, in experiment [2], the “Luminescence normalized to CBR luciferase, D-LH2 (luciferin)” value came to 1.0; the “Luminescence normalized to CBR luciferase, PBI-4739” value came to 1.0; the “Luminescence normalized to CBR luciferase, PBI-4813” value is on record as 1.0. In addition, in experiment [3], the “Luminescence, PBI-4739” value is 17,431; the “Luminescence, PBI 4813” value was 98,556; the PBI-4813/PBI-4739 is listed as 5.7. In addition, the “inhibition of luciferase activity by PBI-4813” value in experiment [4] is “inhibits the activity”.

B2: 5G5: ATG 1240 variant S51N + S444R (SEQ ID NO: 4) (protein)
chain: MVKREKNVIYGPEPLHPLEDLTAGEMLFRALRKHSHLPQALVDVVGDESLNYKEFFEATVLLAQSLHNCGYKMNDVVSICAENNTRFFIPVIAAWYIGMIVAPVNESYIPDELCKVMGISKPQIVFTTKNILNKVLEVQSRTNFIKRIIILDTVENIHGCESLPNFISRYSDGNIANFKPLHFDPVEQVAAILCSSGTTGLPKGVMQTHQNICVRLIHALDPRYGTQLIPGVTVLVYLPFFHAFGFHITLGYFMVGLRVIMFRRFDQEAFLKAIQDYEVRSVINVPSVILFLSKSPLVDKYDLSSLRELCCGAAPLAKEVAEVAAKRLNLPGISCGFGLTESTSAIIQTLRDEFKSGSLGRVTPLMAAKIADRETGKALGPNQVGELCIKGPMVSKGYVNNVEATKEAIDDDGWLHSGDFGYYDEDEHFYVVDRYKELIKYKGRQVAPAELEEILLKNPCIRDVAVVGIPDLEAGELPSAFVVKQPGTEITAKEVYDYLAERVSHTKYLRGGVRFVDSIPRNVTGKITRKELLKQLLVKAGGV
As to B2, in experiment [5] (substrate D-LH2), the “Luminescence normalized to ATG-1240 luciferase, D-LH2” value turned out to be 2.8. For the same molecule, the “Luminescence normalized to ATG-1240 luciferase, PBI-4739” value in experiment [5] (substrate PBI-4739) is recorded as 3.8. For the same molecule, the “Luminescence normalized to ATG-1240 luciferase, PBI-4813” value in experiment [5] (substrate PBI-4813) is listed as 4.0.

B3: ATG 1230: CBR variant I389F, S444R, G251S (SEQ ID NO: 3) (protein)
chain: MVKREKNVIYGPEPLHPLEDLTAGEMLFRALRKHSHLPQALVDVVGDESLSYKEFFEATVLLAQSLHNCGYKMNDVVSICAENNTRFFIPVIAAWYIGMIVAPVNESYIPDELCKVMGISKPQIVFTTKNILNKVLEVQSRTNFIKRIIILDTVENIHGCESLPNFISRYSDGNIANFKPLHFDPVEQVAAILCSSGTTGLPKGVMQTHQNICVRLIHALDPRYGTQLIPGVTVLVYLPFFHAFGFHITLSYFMVGLRVIMFRRFDQEAFLKAIQDYEVRSVINVPSVILFLSKSPLVDKYDLSSLRELCCGAAPLAKEVAEVAAKRLNLPGIRCGFGLTESTSAIIQTLGDEFKSGSLGRVTPLMAAKIADRETGKALGPNQVGELCFKGPMVSKGYVNNVEATKEAIDDDGWLHSGDFGYYDEDEHFYVVDRYKELIKYKGRQVAPAELEEILLKNPCIRDVAVVGIPDLEAGELPSAFVVKQPGTEITAKEVYDYLAERVSHTKYLRGGVRFVDSIPRNVTGKITRKELLKQLLVKAGGV
Turning to B3, in experiment [2] (setting [6]), the “Luminescence normalized to CBR luciferase, D-LH2 (luciferin)” value is 0.6 and 0.5; the “Luminescence normalized to CBR luciferase, PBI-4739” value was 1.6 and 1.4; the “Luminescence normalized to CBR luciferase, PBI-4813” value was 3.4 and 3.2. For the same molecule, in experiment [3], the “Luminescence, PBI-4739” value is listed as 26,595; the “Luminescence, PBI 4813” value was 310,342; the PBI-4813/PBI-4739 was 11.7. In experiment [4], the “inhibition of luciferase activity by PBI-4813” value is on record as “inhibits the activity”.
